This note sets out measurements from patent US20150344570A1 (published 2015).

T1: FcγRIIb extracellular domain with C-terminal His tag (human, UniProt P31994 43-217)
T1 construct: extracellular domain; also called FcgRIIb; 2b
T1 sequence (looked up): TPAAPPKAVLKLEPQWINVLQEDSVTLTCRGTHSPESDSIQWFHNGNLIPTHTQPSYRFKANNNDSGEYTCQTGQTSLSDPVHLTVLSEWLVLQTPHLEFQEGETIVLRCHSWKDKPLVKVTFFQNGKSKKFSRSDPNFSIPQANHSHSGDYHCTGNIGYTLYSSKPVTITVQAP

B1: GpH7-B3 variant S239_03V/GpL16-k0 (antibody, human IgG1, kappa)
heavy: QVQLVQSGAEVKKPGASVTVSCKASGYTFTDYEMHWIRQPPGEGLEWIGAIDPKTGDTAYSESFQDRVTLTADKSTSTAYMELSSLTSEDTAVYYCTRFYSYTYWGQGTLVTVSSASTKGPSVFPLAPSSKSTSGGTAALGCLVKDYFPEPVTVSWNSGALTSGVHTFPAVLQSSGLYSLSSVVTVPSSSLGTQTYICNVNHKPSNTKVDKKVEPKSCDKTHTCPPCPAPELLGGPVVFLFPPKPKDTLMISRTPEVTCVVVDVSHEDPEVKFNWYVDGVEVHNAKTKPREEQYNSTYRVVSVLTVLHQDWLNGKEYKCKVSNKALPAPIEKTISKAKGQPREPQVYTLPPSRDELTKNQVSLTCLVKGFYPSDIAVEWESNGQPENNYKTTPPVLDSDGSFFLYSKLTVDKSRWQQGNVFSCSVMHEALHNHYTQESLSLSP
light: DIVMTQSPLSLPVTPGEPASISCQASESLVHSNRNTYLHWYLQKPGQSPQLLIYKVSNRFSGVPDRFSGSGSGTDFTLKISRVEAEDVGVYYCSQNTHVPPTFGQGTKVEIERTVAAPSVFIFPPSDEQLKSGTASVVCLLNNFYPREAKVQWKVDNALQSGNSQESVTEQDSKDSTYSLSSTLTLSKADYEKHKVYACEVTHQGLSSPVTKSFNRGEC
notes: also called Ho Ab S239_03V
B2: GpH7-A5/GpH7-B3 variant G237_02A/GpL16-k0 (antibody, human IgG1, kappa)
heavy 1: not shown
heavy 2: not shown
light: B1 light
notes: also called He Ab G237_02A
B3: GpH7-A5/GpH7-B3 variant G237_18N/GpL16-k0 (antibody, human IgG1, kappa)
heavy 1: not shown
heavy 2: not shown
light: B1 light
notes: also called He Ab G237_18N
B4: GpH7-A5/GpH7-B3 variant G237_09D/GpL16-k0 (antibody, human IgG1, kappa)
heavy 1: not shown
heavy 2: not shown
light: B1 light
notes: also called He Ab G237_09D
B5: GpH7-B3 variant S337_08L/GpL16-k0 (antibody, human IgG1, kappa)
heavy: not shown
light: B1 light
notes: also called Ho Ab S337_08L
B6: GpH7-B3 variant S267_01G/GpL16-k0 (antibody, human IgG1, kappa)
heavy: not shown
light: B1 light
notes: also called Ho Ab S267_01G
B7: GpH7-B3 variant S324_06M/GpL16-k0 (antibody, human IgG1, kappa)
heavy: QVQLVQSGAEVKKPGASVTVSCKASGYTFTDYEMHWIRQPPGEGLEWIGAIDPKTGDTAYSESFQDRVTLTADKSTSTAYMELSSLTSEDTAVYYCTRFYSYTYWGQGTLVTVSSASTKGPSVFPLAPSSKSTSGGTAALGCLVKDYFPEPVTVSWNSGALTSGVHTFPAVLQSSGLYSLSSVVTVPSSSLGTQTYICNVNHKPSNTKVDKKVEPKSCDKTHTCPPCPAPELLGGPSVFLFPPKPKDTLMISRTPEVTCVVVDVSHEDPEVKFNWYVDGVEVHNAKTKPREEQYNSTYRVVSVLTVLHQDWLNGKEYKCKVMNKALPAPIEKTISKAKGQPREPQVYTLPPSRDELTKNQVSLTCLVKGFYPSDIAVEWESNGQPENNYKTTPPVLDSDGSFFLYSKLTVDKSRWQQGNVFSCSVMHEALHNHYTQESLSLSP
light: B1 light
notes: also called Ho Ab S324_06M
B8: GpH7-A5/GpH7-B3 variant G237_08L/GpL16-k0 (antibody, human IgG1, kappa)
heavy 1: not shown
heavy 2: not shown
light: B1 light
notes: also called He Ab G237_08L
B9: GpH7-B3 variant Y296_20W/GpL16-k0 (antibody, human IgG1, kappa)
heavy: not shown
light: B1 light
notes: also called Ho Ab Y296_20W
B10: GpH7-A5/GpH7-B3 variant G237_10E/GpL16-k0 (antibody, human IgG1, kappa)
heavy 1: not shown
heavy 2: not shown
light: B1 light
notes: also called He Ab G237_10E
B11: GpH7-A5/GpH7-B3 variant G237_06M/GpL16-k0 (antibody, human IgG1, kappa)
heavy 1: not shown
heavy 2: not shown
light: B1 light
notes: also called He Ab G237_06M
B12: GpH7-B3 variant T335_20W/GpL16-k0 (antibody, human IgG1, kappa)
heavy: not shown
light: B1 light
notes: also called Ho Ab T335_20W
B13: GpH7-A5/GpH7-B3 variant G237_20W/GpL16-k0 (antibody, human IgG1, kappa)
heavy 1: not shown
heavy 2: not shown
light: B1 light
notes: also called He Ab G237_20W
B14: GpH7-B3 variant T335_16H/GpL16-k0 (antibody, human IgG1, kappa)
heavy: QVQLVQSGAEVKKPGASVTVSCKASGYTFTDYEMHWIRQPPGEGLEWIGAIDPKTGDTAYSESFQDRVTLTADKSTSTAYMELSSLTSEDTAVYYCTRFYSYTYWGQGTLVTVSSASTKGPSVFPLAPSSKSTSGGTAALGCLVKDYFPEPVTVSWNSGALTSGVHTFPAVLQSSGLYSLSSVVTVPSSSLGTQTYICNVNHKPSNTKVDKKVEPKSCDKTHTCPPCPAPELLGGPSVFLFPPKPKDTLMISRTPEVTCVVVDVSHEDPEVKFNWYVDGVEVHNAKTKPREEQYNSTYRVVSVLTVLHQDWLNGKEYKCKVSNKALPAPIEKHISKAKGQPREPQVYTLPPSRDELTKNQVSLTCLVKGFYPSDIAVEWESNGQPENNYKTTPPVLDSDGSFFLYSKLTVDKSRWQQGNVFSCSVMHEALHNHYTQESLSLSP
light: B1 light
notes: also called Ho Ab T335_16H
B15: GpH7-A5/GpH7-B3 variant A330_05P/GpL16-k0 (antibody, human IgG1, kappa)
heavy 1: not shown
heavy 2: not shown
light: B1 light
notes: also called He Ab A330_05P
B16: GpH7-B3 variant S298_06M/GpL16-k0 (antibody, human IgG1, kappa)
heavy: not shown
light: B1 light
notes: also called Ho Ab S298_06M
B17: GpH7-B3 variant S337_18N/GpL16-k0 (antibody, human IgG1, kappa)
heavy: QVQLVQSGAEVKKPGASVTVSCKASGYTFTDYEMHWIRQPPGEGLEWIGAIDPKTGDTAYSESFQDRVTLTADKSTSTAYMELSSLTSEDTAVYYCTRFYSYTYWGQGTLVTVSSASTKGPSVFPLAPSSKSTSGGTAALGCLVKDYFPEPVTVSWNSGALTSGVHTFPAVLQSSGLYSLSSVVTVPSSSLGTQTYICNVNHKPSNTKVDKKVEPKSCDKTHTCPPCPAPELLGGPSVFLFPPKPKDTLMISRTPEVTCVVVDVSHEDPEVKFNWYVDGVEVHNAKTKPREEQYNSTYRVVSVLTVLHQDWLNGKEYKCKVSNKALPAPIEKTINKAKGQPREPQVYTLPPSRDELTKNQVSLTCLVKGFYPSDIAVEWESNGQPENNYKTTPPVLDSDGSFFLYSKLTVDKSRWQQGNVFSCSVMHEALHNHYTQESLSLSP
light: B1 light
notes: also called Ho Ab S337_18N
B18: GpH7-A5/GpH7-B3 variant G237_19Q/GpL16-k0 (antibody, human IgG1, kappa)
heavy 1: not shown
heavy 2: not shown
light: B1 light
notes: also called He Ab G237_19Q
B19: GpH7-B3 variant T335_15Y/GpL16-k0 (antibody, human IgG1, kappa)
heavy: not shown
light: B1 light
notes: also called Ho Ab T335_15Y
B20: GpH7-B3 variant V266_06M/GpL16-k0 (antibody, human IgG1, kappa)
heavy: not shown
light: B1 light
notes: also called Ho Ab V266_06M
B21: GpH7-B3 variant T335_19Q/GpL16-k0 (antibody, human IgG1, kappa)
heavy: not shown
light: B1 light
notes: also called Ho Ab T335_19Q
B22: GpH7-B3 variant S239_06M/GpL16-k0 (antibody, human IgG1, kappa)
heavy: not shown
light: B1 light
notes: also called Ho Ab S239_06M
B23: GpH7-A5/GpH7-B3 variant A327_07I/GpL16-k0 (antibody, human IgG1, kappa)
heavy 1: not shown
heavy 2: not shown
light: B1 light
notes: also called He Ab A327_07I
B24: GpH7-B3 variant S267_06M/GpL16-k0 (antibody, human IgG1, kappa)
heavy: not shown
light: B1 light
notes: also called Ho Ab S267_06M
B25: GpH7-B3 variant S239_10E/GpL16-k0 (antibody, human IgG1, kappa)
heavy: not shown
light: B1 light
notes: also called Ho Ab S239_10E
B26: GpH7-B3 variant S337_20W/GpL16-k0 (antibody, human IgG1, kappa)
heavy: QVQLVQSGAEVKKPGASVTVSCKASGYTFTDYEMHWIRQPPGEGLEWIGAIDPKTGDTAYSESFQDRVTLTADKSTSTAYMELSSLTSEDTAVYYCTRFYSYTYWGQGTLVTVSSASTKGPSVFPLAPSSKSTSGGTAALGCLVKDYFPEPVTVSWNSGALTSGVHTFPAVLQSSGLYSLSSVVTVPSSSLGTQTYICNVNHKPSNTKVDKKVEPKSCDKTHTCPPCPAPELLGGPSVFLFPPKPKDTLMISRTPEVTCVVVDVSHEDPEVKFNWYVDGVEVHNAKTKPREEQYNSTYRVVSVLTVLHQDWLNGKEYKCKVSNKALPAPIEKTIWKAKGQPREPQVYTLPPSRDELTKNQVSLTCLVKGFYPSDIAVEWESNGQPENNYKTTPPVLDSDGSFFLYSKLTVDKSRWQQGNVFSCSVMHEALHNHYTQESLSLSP
light: B1 light
notes: also called Ho Ab S337_20W
B27: GpH7-B3 variant S239_05P/GpL16-k0 (antibody, human IgG1, kappa)
heavy: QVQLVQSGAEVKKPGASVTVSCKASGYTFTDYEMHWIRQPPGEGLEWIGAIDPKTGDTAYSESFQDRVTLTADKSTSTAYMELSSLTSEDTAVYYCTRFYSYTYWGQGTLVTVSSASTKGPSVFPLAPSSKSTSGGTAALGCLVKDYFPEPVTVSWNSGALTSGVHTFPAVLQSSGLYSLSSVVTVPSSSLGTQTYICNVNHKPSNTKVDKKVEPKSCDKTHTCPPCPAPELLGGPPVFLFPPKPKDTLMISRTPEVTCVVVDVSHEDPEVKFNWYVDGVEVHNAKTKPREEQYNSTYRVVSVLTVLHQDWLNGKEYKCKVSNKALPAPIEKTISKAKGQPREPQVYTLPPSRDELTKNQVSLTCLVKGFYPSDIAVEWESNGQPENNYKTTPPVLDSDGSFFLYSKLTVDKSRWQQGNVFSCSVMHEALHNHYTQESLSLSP
light: B1 light
notes: also called Ho Ab S239_05P
B28: GpH7-A5/GpH7-B3 variant G237_04F/GpL16-k0 (antibody, human IgG1, kappa)
heavy 1: not shown
heavy 2: not shown
light: B1 light
notes: also called He Ab G237_04F
B29: GpH7-A5/GpH7-B3 variant G237_15Y/GpL16-k0 (antibody, human IgG1, kappa)
heavy 1: not shown
heavy 2: not shown
light: B1 light
notes: also called He Ab G237_15Y
B30: GpH7-B3 variant T335_10E/GpL16-k0 (antibody, human IgG1, kappa)
heavy: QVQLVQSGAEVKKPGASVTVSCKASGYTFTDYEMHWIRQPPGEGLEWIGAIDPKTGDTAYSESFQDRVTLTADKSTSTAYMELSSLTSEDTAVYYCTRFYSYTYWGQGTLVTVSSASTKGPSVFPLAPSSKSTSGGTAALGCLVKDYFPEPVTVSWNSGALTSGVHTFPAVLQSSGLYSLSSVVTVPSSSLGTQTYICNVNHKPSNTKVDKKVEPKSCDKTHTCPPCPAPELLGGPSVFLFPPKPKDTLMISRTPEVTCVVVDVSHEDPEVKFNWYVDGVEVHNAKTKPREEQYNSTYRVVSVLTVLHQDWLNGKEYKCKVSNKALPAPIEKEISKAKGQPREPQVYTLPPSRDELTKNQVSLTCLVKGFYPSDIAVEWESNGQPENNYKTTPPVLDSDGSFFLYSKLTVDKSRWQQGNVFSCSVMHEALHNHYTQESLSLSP
light: B1 light
notes: also called Ho Ab T335_10E
B31: GpH7-B3 variant S337_16H/GpL16-k0 (antibody, human IgG1, kappa)
heavy: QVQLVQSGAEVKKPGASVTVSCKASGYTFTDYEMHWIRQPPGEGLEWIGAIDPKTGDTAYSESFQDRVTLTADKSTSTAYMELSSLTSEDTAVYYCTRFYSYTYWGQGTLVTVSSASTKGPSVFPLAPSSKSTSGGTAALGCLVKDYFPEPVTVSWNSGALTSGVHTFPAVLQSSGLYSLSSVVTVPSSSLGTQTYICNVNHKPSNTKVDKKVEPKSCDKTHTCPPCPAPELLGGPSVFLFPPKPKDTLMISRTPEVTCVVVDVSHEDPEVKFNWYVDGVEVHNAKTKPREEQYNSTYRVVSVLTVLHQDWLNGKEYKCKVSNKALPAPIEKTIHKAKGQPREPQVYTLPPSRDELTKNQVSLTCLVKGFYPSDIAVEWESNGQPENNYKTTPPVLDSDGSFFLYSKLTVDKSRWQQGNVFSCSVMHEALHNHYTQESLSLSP
light: B1 light
notes: also called Ho Ab S337_16H
B32: GpH7-B3 variant T335_18N/GpL16-k0 (antibody, human IgG1, kappa)
heavy: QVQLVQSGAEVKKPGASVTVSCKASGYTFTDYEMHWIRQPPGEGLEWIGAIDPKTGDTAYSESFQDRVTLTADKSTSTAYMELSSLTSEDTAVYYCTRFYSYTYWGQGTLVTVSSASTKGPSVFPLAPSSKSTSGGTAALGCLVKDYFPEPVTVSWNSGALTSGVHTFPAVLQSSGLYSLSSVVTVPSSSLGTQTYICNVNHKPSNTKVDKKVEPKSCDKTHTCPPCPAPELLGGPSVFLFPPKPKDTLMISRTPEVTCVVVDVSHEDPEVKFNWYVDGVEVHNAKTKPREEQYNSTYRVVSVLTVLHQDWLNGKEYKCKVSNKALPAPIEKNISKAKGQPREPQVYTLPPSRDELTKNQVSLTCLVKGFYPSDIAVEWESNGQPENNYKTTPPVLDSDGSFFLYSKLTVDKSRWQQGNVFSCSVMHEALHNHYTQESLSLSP
light: B1 light
notes: also called Ho Ab T335_18N
B33: GpH7-A5/GpH7-B3 variant G237_13S/GpL16-k0 (antibody, human IgG1, kappa)
heavy 1: not shown
heavy 2: not shown
light: B1 light
notes: also called He Ab G237_13S
B34: GpH7-B3 variant S337_07I/GpL16-k0 (antibody, human IgG1, kappa)
heavy: not shown
light: B1 light
notes: also called Ho Ab S337_07I
B35: GpH7-B3 variant S337_15Y/GpL16-k0 (antibody, human IgG1, kappa)
heavy: not shown
light: B1 light
notes: also called Ho Ab S337_15Y
B36: GpH7-B3 variant T335_13S/GpL16-k0 (antibody, human IgG1, kappa)
heavy: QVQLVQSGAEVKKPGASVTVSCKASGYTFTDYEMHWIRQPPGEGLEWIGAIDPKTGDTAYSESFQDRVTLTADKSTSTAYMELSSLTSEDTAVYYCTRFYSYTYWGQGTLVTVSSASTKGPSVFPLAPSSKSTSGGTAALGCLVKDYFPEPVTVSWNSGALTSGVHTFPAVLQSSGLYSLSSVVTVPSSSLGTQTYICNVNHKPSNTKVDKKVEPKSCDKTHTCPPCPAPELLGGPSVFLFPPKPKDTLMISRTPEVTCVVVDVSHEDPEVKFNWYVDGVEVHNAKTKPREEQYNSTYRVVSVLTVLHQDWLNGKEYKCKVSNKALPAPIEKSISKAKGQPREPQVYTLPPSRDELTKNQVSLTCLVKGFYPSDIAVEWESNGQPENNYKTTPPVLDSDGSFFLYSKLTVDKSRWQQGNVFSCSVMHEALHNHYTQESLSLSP
light: B1 light
notes: also called Ho Ab T335_13S
B37: GpH7-B3 variant T335_07I/GpL16-k0 (antibody, human IgG1, kappa)
heavy: not shown
light: B1 light
notes: also called Ho Ab T335_07I
B38: GpH7-B3 variant S267_19Q/GpL16-k0 (antibody, human IgG1, kappa)
heavy: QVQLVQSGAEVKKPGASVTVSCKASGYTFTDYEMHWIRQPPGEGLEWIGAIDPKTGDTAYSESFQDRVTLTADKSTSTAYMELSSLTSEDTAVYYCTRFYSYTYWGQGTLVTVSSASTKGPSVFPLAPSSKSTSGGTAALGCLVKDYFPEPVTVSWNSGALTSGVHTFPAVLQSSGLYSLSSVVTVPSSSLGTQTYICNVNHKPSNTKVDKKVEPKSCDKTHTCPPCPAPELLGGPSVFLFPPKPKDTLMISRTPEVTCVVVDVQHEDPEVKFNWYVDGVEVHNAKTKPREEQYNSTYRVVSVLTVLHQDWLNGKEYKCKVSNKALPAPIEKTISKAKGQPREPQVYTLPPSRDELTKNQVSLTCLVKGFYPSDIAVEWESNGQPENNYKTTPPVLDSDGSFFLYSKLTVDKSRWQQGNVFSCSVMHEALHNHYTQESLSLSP
light: B1 light
notes: also called Ho Ab S267_19Q
B39: GpH7-A5/GpH7-B3 variant A327_18N/GpL16-k0 (antibody, human IgG1, kappa)
heavy 1: not shown
heavy 2: not shown
light: B1 light
notes: also called He Ab A327_18N
B40: GpH7-A5/GpH7-B3 variant A330_01G/GpL16-k0 (antibody, human IgG1, kappa)
heavy 1: not shown
heavy 2: not shown
light: B1 light
notes: also called He Ab A330_01G

The assay deals with T1, FcγRIIb extracellular domain with …. Put plainly: SPR (Biacore), relative binding.
As to B1, the Ho/Con_2b is 108 % of HoCon Ab GpH7-B3/GpL16-k0. Consider B2, for which the He/Con_2b is 124 % of HeCon Ab GpH7-A5/GpH7-B3/GpL16-k0. On to B3, for which the He/Con_2b was 180 % of HeCon Ab GpH7-A5/GpH7-B3/GpL16-k0. On the same count and under the same terms, to B4 belongs 223 % of HeCon Ab GpH7-A5/GpH7-B3/GpL16-k0.

Regarding B5, the Ho/Con_2b is 90.7 % of HoCon Ab GpH7-B3/GpL16-k0. Same read-out and setting: to B6 belongs 97 % of HoCon Ab GpH7-B3/GpL16-k0; to B7, 104 % of HoCon Ab GpH7-B3/GpL16-k0. On to B8, for which the He/Con_2b was 148 % of HeCon Ab GpH7-A5/GpH7-B3/GpL16-k0. For the molecule B9, the Ho/Con_2b is 103 % of HoCon Ab GpH7-B3/GpL16-k0.

For B10, the He/Con_2b was 114 % of HeCon Ab GpH7-A5/GpH7-B3/GpL16-k0. In the case of B11, the He/Con_2b was 130 % of HeCon Ab GpH7-A5/GpH7-B3/GpL16-k0. With B12, the Ho/Con_2b is 94.4 % of HoCon Ab GpH7-B3/GpL16-k0. B13: the He/Con_2b is 193 % of HeCon Ab GpH7-A5/GpH7-B3/GpL16-k0. As to B14, the Ho/Con_2b was 97.2 % of HoCon Ab GpH7-B3/GpL16-k0. As for B15, the He/Con_2b was 137 % of HeCon Ab GpH7-A5/GpH7-B3/GpL16-k0. On to B16, for which the Ho/Con_2b is 101 % of HoCon Ab GpH7-B3/GpL16-k0. Same read-out and setting: to B17 belongs 98 % of HoCon Ab GpH7-B3/GpL16-k0. As for B18, the He/Con_2b is 108 % of HeCon Ab GpH7-A5/GpH7-B3/GpL16-k0. For the molecule B19, the Ho/Con_2b was 104 % of HoCon Ab GpH7-B3/GpL16-k0. As to B20, the Ho/Con_2b was 231 % of HoCon Ab GpH7-B3/GpL16-k0.

For the molecule B21, the Ho/Con_2b was 97.3 % of HoCon Ab GpH7-B3/GpL16-k0. Same read-out and setting: to B22 belongs 84.3 % of HoCon Ab GpH7-B3/GpL16-k0. On to B23, for which the He/Con_2b was 127 % of HeCon Ab GpH7-A5/GpH7-B3/GpL16-k0. Turning to B24, the Ho/Con_2b was 187 % of HoCon Ab GpH7-B3/GpL16-k0. Same read-out and setting: to B25 belongs 175 % of HoCon Ab GpH7-B3/GpL16-k0; to B26, 99.6 % of HoCon Ab GpH7-B3/GpL16-k0. As for B27, the Ho/Con_2b is 61 % of HoCon Ab GpH7-B3/GpL16-k0. With B28, the He/Con_2b is 149 % of HeCon Ab GpH7-A5/GpH7-B3/GpL16-k0.

B29: the He/Con_2b is 152 % of HeCon Ab GpH7-A5/GpH7-B3/GpL16-k0.

Regarding B30, the Ho/Con_2b is 108 % of HoCon Ab GpH7-B3/GpL16-k0.

Consider B31, for which the Ho/Con_2b was 103 % of HoCon Ab GpH7-B3/GpL16-k0.

As to B32, the Ho/Con_2b is 96.1 % of HoCon Ab GpH7-B3/GpL16-k0. In the case of B33, the He/Con_2b was 111 % of HeCon Ab GpH7-A5/GpH7-B3/GpL16-k0. B34: the Ho/Con_2b is 96.6 % of HoCon Ab GpH7-B3/GpL16-k0.

On to B35, for which the Ho/Con_2b is 93.4 % of HoCon Ab GpH7-B3/GpL16-k0. On to B36, for which the Ho/Con_2b was 95.2 % of HoCon Ab GpH7-B3/GpL16-k0. B37: the Ho/Con_2b is 104 % of HoCon Ab GpH7-B3/GpL16-k0. Same read-out and setting: to B38 belongs 185 % of HoCon Ab GpH7-B3/GpL16-k0. For the molecule B39, the He/Con_2b is 113 % of HeCon Ab GpH7-A5/GpH7-B3/GpL16-k0. As for B40, the He/Con_2b is 104 % of HeCon Ab GpH7-A5/GpH7-B3/GpL16-k0.
